Reference: US20220296736A1, “ADMINISTRATION OF THERAPEUTIC AGENTS TO BRAIN AND OTHER CELLS AND TISSUE” (priority 2019, published 2022)

Tests used:
[1] = mouse, in vivo, iv; cited from earlier work
[2] = mouse, in vivo
Method: In the first step, we conjugated BV with DFO chelator and characterized resulting conjugate by means of its molecular weight and binding to vascular endothelial growth factor (VEGF). […] Next day PET-CT imaging was repeated and animals were sacrificed to perform ex vivo biodistribution of ^89ZrBVDFO.
(§1) All animal procedures were carried out under protocols approved by the Johns Hopkins Animal Care and Use Committee. Under general anesthesia with 1-2% isoflurane a catheter was placed in internal carotid artery of C3HeB/FeJ (Jackson, stock No. 000658), male, 6-8 weeks old mice, as we described previously (22) and animal was transferred to the PET-CT scanner. […] A CT scan (512 projections) was performed after dynamic scan for anatomical co-registration. PET/CT imaging was repeated around 24 h post infusion. PET data were reconstructed using the two-dimensional ordered subsets-expectation maximization algorithm (2D-OSEM) and corrected for dead time and radioactive decay. Presented whole body images were generated using Amira® (FEI, Hillsboro, Oreg.) and dynamic scans (brain and heart radioactivity accumulation) and radioactivity distribution in different brain regions were analyzed with PMOD 4.3 (PMOD Technologies LLC, Zurich, Switzerland).

[3] = human, in vivo, iv; cited from earlier work
[4] = mouse, in vivo; remark: listed apart in the source
Method: In the first step, we conjugated BV with DFO chelator and characterized resulting conjugate by means of its molecular weight and binding to vascular endothelial growth factor (VEGF).
as §1

[5] = Safety of IA mannitol-induced BBBO in the cortex (MRI and GFAP/IBA1 histology); format: in vivo, SCID mice
Method: Once cortical perfusion has been confirmed, 25% mannitol mixed with Gd (50:1) was infused until enhancement indicating BBB breach has been achieved (up to three bolus injections 1-2 min each; interval between infusions is 30 s). For detailed assessment of the BBB status, high resolution T1-weighted scan was collected after mannitol infusion. Three and seven days after OBBBO, the safety of the procedure was evaluated by MRI and then animals were sacrificed for further histological assessment.
For histological evaluation on the safety of OBBBO in the cortex, 7 days after surgery, animals (n=4) were anesthetized and perfused transcardially with 5% sucrose, followed by 4% paraformaldehyde (PFA). The brains were rapidly removed and post-fixed overnight in 4% PFA at 4° C. The brains were cryopreserved in 30% sucrose and 30-μm thick coronal sections were cryosectioned. Immunohistochemistry for anti-GFAP (1:250, Dako) and anti-Iba1 (1:250, Wako) was performed to assess the neuroinflammation. The secondary antibody was goat anti-rabbit (Alexa Fluor-488, 1:200, Molecular Probes). […] All the fluorescent images were acquired using an inverted microscope (Zeiss, Axio Observer Z1).
Data is expressed as mean±SD unless otherwise specified. Quantitation of immunohistochemistry was based on relative fluorescence using Image J and analyzed using a paired t-test. The ratio of ipsi-/contralateral was analyzed using an unpaired t-test. The MRI analysis of the change in area of the Gd perfusion territory and Gd-enhancement for each mouse was calculated using a custom-written script in MATLAB and analyzed using a paired t-test. A p-value less than 0.05 was considered significant.

recombinant human VEGF-A = experiment: Functional binding assay of BV and BVDFO to VEGF (Bevacizumab ELISA); conditions: unmodified BV versus BVDFO conjugate
Method: The ELISA assay devoted for assessment of bevacizumab concentration has been used to assess the binding capacity of unmodified BV and BVDFO conjugate. The assay was carried out using Bevacizumab ELISA (ImmunoGuide, Eagle Bioscience) according to the manufacturer protocol. Briefly, 100 μg/mL, 50 μg/mL, 25 μg/mL of BV and BVDFO, as well as the provided standards were diluted 1:1000, and pipetted in 6 repetitions into the wells of the microtiter plate coated with recombinant human VEGF-A. Plate was incubated for 60 min in the room temperature and washed 3× with buffer. Next, horseradish peroxidase (HRP) conjugated anti-human IgG monoclonal antibody was added to each well, and incubated in room temperature for 30 min. Plate was washed 3× with the buffer and ready-to-use TMB substrate solution was added to each well. After 15 min incubation in dark, stop solution was added to each well and the color change from blue to yellow was observed. The absorbance at 450 nm was read using Victor 3 plate reader (Perkin Elmer) within 10 min after addition of the stop solution and expressed as optical density (OD).

[6] = Histological assessment of BV biodistribution and extravasation; format: in vivo, SCID mice; conditions: for localisation in brain tissue: one hour after delivery
Method: For histological evaluation on the safety of OBBBO in the cortex, 7 days after surgery, animals (n=4) were anesthetized and perfused transcardially with 5% sucrose, followed by 4% paraformaldehyde (PFA). The brains were rapidly removed and post-fixed overnight in 4% PFA at 4° C. The brains were cryopreserved in 30% sucrose and 30-μm thick coronal sections were cryosectioned. Immunohistochemistry for anti-GFAP (1:250, Dako) and anti-Iba1 (1:250, Wako) was performed to assess the neuroinflammation. The secondary antibody was goat anti-rabbit (Alexa Fluor-488, 1:200, Molecular Probes). For detecting the biodistribution of infused BV, the mice with OBBBO (n=4) and without OBBBO (n=3) were sacrificed 1 hour after administration. The brains were cryosectioned at 30 μm and the slices were stained with goat anti-human secondary antibody (Alexa Fluor-488, 1:200, Invitrogen). All the fluorescent images were acquired using an inverted microscope (Zeiss, Axio Observer Z1).
A p-value less than 0.05 was considered significant.

[7] = Intravital 2PM visualization of cortical BBBO and drug extravasation; format: in vivo, SCID mice; conditions: IA infusion with 25% mannitol; 7 ROIs
Method: Before microscopy, isoflurane anesthetized mice (n=5) with cranial window and with arterial access as described above were stabilized in a custom-made frame immobilizing their head. The mice were positioned under an epi-fluorescent microscope and a 10× magnification objective was used for capturing images at frequency of 1-2 Hz. Saline solution of 0.001 mM rhodamine (0.58 kDa) was injected using a syringe infusion pump at the rate of 0.15 ml/min over 1 min via the ICA microcatheter to visualize trans-catheter perfusion. When the cortex was not perfused, the cCCA was closed temporarily for 20 s by engaging the weights.
For 2PM to visualize OBBBO and drug penetration, mice were placed under a multiphoton microscope (FV1000MPE, Olympus, Tokyo, Japan). A 10× objective (UPlanSApo, 0.40 NA and 3.1 mm working distance) was centered over the cranial window and used to collect time series images of 800×800 pixels (1.59 μm/pixel; 2 μs/pixel; 100 frames) at an estimated depth of 150 um below the cortical surface. Rhodamine (0.002 mM) mixed with BV-FITC (0.01 mM) was injected prior to OBBBO to collect baseline data and optimize cortical perfusion (temporary cCCA closure). Then, 25% mannitol mixed with rhodamine and BV-FITC was delivered at the rate of 0.15 ml/min for 4 mins in total. […]

Chain of recombinant human VEGF-A (P15692 207-320 limits assumed): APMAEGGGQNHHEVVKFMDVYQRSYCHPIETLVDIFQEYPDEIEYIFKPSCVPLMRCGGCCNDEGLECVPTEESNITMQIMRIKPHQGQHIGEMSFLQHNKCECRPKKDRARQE

89ZrBVDFO: bevacizumab conjugated with on average 3 molecules of DFO chelator and radiolabeled with 89Zr
accumulation in the brain and tumors [1]: no accumulation | radioactivity accumulation in contralateral hemisphere [2]: no radioactivity accumulation | signal in the contralateral hemisphere [2]: negligible signal | radioactivity in the entire brain ([2]; iv): 2.91 % ID/cc | uptake in diffuse intrinsic pontine glioma [3]: some uptake in five out of seven patients | clearance from the brain compared with 89ZrNB(DFO)2 [4]: slower

OC[C@@H](O)[C@@H](O)[C@H](O)[C@H](O)CO [mannitol]
brain damage after cortical BBBO induction (MRI and histology) ([5]; 3 and 7 days after BBBO): did not cause brain damage | astrocytic or microglial activation in the BBBO region (GFAP and IBA-1 staining) ([5]; 7 days post BBBO, ipsilateral versus contralateral): no evidence of astrocytic or microglial activation | brain damage after excessive exposure (T2 hyperintensity) ([5]; continuous 4 min-infusion): led to brain damage

BVDFO: bevacizumab conjugated with p-SCN-Bn-DFO chelator
binding to VEGF (recombinant human VEGF-A): did not affect its targeting properties

BV: AVASTIN (BV, Roche), bevacizumab, antibody binding VEGF
localisation in brain tissue ([6]; IA delivery with OBBBO): both blood vessels and parenchyma | localisation in brain tissue ([6]; IA delivery with intact BBB (BBBI)): localized within the blood vessels | uptake in ipsilateral vs. contralateral hemisphere (fluorescence intensity) ([6]; both groups (BBBI and OBBBO)): significantly higher uptake

rhodamine
extravasation upon BBBO compared to BV-FITC (2PM fluorescence intensity) [7]: earlier onset and higher intensity of extravasation
